Results taken from patent US20250276077A1, “EPHA2 ANTIBODIES” (Immunome, Inc., priority 2022, published 2025).
Changes are numbered by the printed parent chain.

B1: EphrinA1-Fc: natural ligand EphrinA1 fused to Fc (Acro, EF1-H5251) (protein)
chain: DRHTVFWNSSNPKFRNEDYTIHVQLNDYVDIICPHYEDHSVADAAMEQYILYLVEHEEYQLCQPQSKDQVRWQCNRPSAKHGPEKLSEKFQRFTPFTLGKEFKEGHSYYYISKPIHQHEDRCLRLKVTVSGKITHSPQAHDNPQEKRLAADDPEVRVLHSIGHS
modifications: left off: a dimerising Fc or GST
B2: Ephrin-A1 (protein)
chain: B1 chain
modifications: left off: a dimerising Fc or GST
B3: AB-010685: VH SEQ ID NO: 638, VL SEQ ID NO: 703; H107TI; L29SY; L92SH relative to AB-010361 (antibody, V domains shown)
VH: QVQLQQWGAGLLKPSETLSLTCAVYGGSFSGYYWSWIRQPPGKGLEWIGEINHRGSINYNNYNPSLKSRVTISVDTSKNQFSLKLSSVTAADTAVYYCAKPLRPHCINGVCYSGDAFDIWGQGTMVTVAS
VL: SYVLTQPPSVSVAPGQTARITCGGNNIGYKNVHWYQQKPGQAPVLVVYDDSDRPSGIPEQFSGSNSGNTATLTISRVEAGDEADYYCQVWDHSSDHVVFGGGTKLTVL
B4: AB-010678: VH SEQ ID NO: 631, VL SEQ ID NO: 696; L23GR; L92SH relative to AB-010361 (antibody, V domains shown)
VH: B3 VH with I107T
VL: B3 VL with G23R, Y29S
B5: AB-010684: VH SEQ ID NO: 637, VL SEQ ID NO: 702; H107TI; L92SH relative to AB-010361 (antibody, V domains shown)
VH: B3 VH
VL: B3 VL with Y29S
B6: AB-010688: VH SEQ ID NO: 641, VL SEQ ID NO: 706; L29SY; L93SE relative to AB-010361 (antibody, V domains shown)
VH: B3 VH with I107T
VL: B3 VL with H92S, S93E
B7: AB-010670: VH SEQ ID NO: 623, VL SEQ ID NO: 688; H107TI; L92SH relative to AB-010357 (antibody, V domains shown)
VH: B3 VH with G31D
VL: B3 VL with Y29S
B8: AB-010683: VH SEQ ID NO: 636, VL SEQ ID NO: 701; L30KM; L92SH relative to AB-010361 (antibody, V domains shown)
VH: B3 VH with I107T
VL: B3 VL with Y29S, K30M
B9: AB-010672: VH SEQ ID NO: 625, VL SEQ ID NO: 690; L93SR relative to AB-010357 (antibody, V domains shown)
VH: B3 VH with G31D, I107T
VL: B3 VL with Y29S, H92S, S93R
B10: AB-010669: VH SEQ ID NO: 622, VL SEQ ID NO: 687; L30KM; L92SH relative to AB-010357 (antibody, V domains shown)
VH: B3 VH with G31D, I107T
VL: B3 VL with Y29S, K30M
B11: AB-010681: VH SEQ ID NO: 634, VL SEQ ID NO: 699; L29SY; L92SH relative to AB-010361 (antibody, V domains shown)
VH: B3 VH with I107T
VL: B3 VL
B12: AB-010673: VH SEQ ID NO: 626, VL SEQ ID NO: 691; L93SE relative to AB-010357 (antibody, V domains shown)
VH: B3 VH with G31D, I107T
VL: B3 VL with Y29S, H92S, S93E
B13: AB-010674: VH SEQ ID NO: 627, VL SEQ ID NO: 692; L29SY; L93SE relative to AB-010357 (antibody, V domains shown)
VH: B3 VH with G31D, I107T
VL: B3 VL with H92S, S93E
B14: AB-010687: VH SEQ ID NO: 640, VL SEQ ID NO: 705; L93SE relative to AB-010361 (antibody, V domains shown)
VH: B3 VH with I107T
VL: B3 VL with Y29S, H92S, S93E
B15: AB-010667: VH SEQ ID NO: 620, VL SEQ ID NO: 685; L29SY; L92SH relative to AB-010357 (antibody, V domains shown)
VH: B3 VH with G31D, I107T
VL: B3 VL
B16: AB-010664: VH SEQ ID NO: 617, VL SEQ ID NO: 682; L23GR; L92SH relative to AB-010357 (antibody, V domains shown)
VH: B3 VH with G31D, I107T
VL: B3 VL with G23R, Y29S
B17: AB-010686: VH SEQ ID NO: 639, VL SEQ ID NO: 704; L93SR relative to AB-010361 (antibody, V domains shown)
VH: B3 VH with I107T
VL: B3 VL with Y29S, H92S, S93R

What was measured:
[1] = target: T1, extracellular domain of human EphA2 (25-534) (Homo sapiens, UniProt P29317); assay: Epitope binning by bio-layer interferometry (Octet, in-tandem); type: binding
T1 construct: extracellular domain of human EphA2 (25-534) with a C-terminal HIS tag; purchased R&D Systems 3035-A2
Experimental: Epitope binning was performed using an Octet Red 96E instrument (Sartorius) using the in-tandem format. In this format, antigen is captured on a biosensor tip, a first antibody (or other binding partner) is bound to saturation, and subsequently the ability of a second antibody (or binding partner) known to recognize the antigen is assessed. If substantial binding by the second species is no longer observed, it is supportive that simultaneous binding is sterically hindered (i.e., the second species is “blocked” by pre-saturation of the 1st) and that the two may bind overlapping epitopes. If, however, substantial binding of the second species is observed, despite saturation of the first, it is supportive that the two bind non-overlapping epitopes. Groups of antibodies that block one another can be considered to populate the same epitope bin.
The fourth antibody Fv region (AB-008873) was discovered via Atreca's Immune Repertoire Capture (IRC™). Antibodies were produced with mouse IgG2a constant regions. The natural ligand tested was EphrinA1 fused to Fc (Acro, EF1-H5251). Antigen immobilized on the biosensor was the extracellular domain of human EphA2 (25-534) with a C-terminal HIS tag (R&D Systems, 3035-A2) and captured using Ni-NTA tips (Sartorius, 18-5102). Protein solutions were made in 1× Kinetics buffer (Satorius, 18-1092) supplemented with 2.5 mM Imidazole to reduce non-specific binding. Each pairwise interaction was assessed in both orders of addition, and controls for binding in the absence of antigen or with antigen but without a first binding species included. Binning indicated the five molecules populated only two Bins. The first bin contains molecules AB-008873 and AB-010018 and was interpreted to represent epitopes on the membrane proximal fibronectin domain of EphA2 based on the reported epitope location of DS-8895a (Hasegawa, J. et al., Novel anti-EPHA2 antibody, DS-8895a for cancer treatment. Cancer Biology and Therapy, 17(11), 1158-1167 (2016)). The second bin contains molecules AB-010017. AB-010016, and EphrinA1-Fc and was interpreted to represent epitopes on the ligand binding domain (Peng, L. et al., Structural and functional characterization of an agonistic anti-human EphA2 monoclonal antibody. Journal of Molecular Biology, 413(2), 390-405 (2011); Geddie, M. L. et al., Improving the developability of an anti-EphA2 single-chain variable fragment for nanoparticle targeting. MAbs, 9(1), 58-67 (2017)). FIG. 5, Tables 41-42. Referring to FIG. 5, the FN2 location in the first bin is inferred from domain deletion data reported in Hasegawa et al., 2016, FIG. 1, noting that the reported MMP cleavage sites are (385/395/432/435).

PC3-KILR cells = assay: ADCC (KILR target cells, NK92 CD16 chimera effector cells); type: cell-based, human
Experimental: (§1) To detect Antibody-dependent cellular cytotoxicity (ADCC), KILR™-transfected target cells were opsonized with different concentrations of the antibody at room temperature for 20 minutes. Following, NK92 cells carrying a mouse extracellular-human intracellular CD16 chimera were added at a 5:1 ratio of effector to target cells. After a 4 h co-culture at 37° C. and 5% CO2, pre-mixed KILR™ detection reagent was added to each well at equal volume and allowed to incubate for 30 min at room temperature in the dark before reading luminescence on a pate reader. Cytotoxicity was calculated after background (spontaneous release) subtraction and expressed as percent of a maximum lysis control.

A549 cells = assay: as above; type: cell-based, human; conditions: for EC50 / ADCC - dAct rel. parent, Trial 1 / ADCC - dAct rel. parent, Trial 2: A549 tumor cells; for ADCC - dAct rel. parent, Trial 1: Trial 1, relative to parent antibody; for ADCC - dAct rel. parent, Trial 2: Trial 2, relative to parent antibody
Experimental: as §1

T1 sequence (P29317 25-534): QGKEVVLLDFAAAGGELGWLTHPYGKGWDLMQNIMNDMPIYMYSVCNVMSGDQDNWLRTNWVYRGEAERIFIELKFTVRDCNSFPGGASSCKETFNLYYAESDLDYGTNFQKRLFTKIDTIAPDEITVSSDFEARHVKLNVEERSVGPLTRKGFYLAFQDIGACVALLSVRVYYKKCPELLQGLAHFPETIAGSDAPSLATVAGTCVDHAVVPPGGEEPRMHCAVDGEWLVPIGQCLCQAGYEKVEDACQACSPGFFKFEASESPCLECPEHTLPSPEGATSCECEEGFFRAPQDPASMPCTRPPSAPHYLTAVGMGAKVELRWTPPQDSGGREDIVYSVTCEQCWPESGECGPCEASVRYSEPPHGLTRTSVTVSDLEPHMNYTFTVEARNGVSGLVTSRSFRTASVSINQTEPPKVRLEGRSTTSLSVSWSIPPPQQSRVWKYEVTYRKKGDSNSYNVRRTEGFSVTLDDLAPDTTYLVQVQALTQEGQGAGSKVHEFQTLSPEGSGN

Row | Molecule | ADCC - dAct rel. parent, Trial 1 (A549 cells) [%] | ADCC - dAct rel. parent, Trial 2 (A549 cells) [%] | further results
1 | B1 | – | – | epitope bin ([1]; first bin: membrane proximal fibronectin domain, second bin: ligand binding domain): second bin
2 | B2 | – | – | Octet in tandem binning, Notes/Scoring ([1]; label = Analyte 1, Analyte 2 8873-02, NiNTA tip, Ligand R&D ECD-06): Binding observed; Octet in tandem binning (blocked / binds) ([1]; paired with 8873-2 (column; Bin #1 - FN2)): binds; Octet in tandem binning (blocked / binds) ([1]; paired with 10016-01 (Bin #2 - LBD)): blocked; Octet in tandem binning (blocked / binds) ([1]; paired with 10017-01 (Bin #2 - LBD)): blocked; Octet in tandem binning (blocked / binds) ([1]; paired with 10018-01 (column; Bin #1 - FN2)): binds; Octet in tandem binning (blocked / binds) ([1]; paired with Ephrin-A1 (Bin #2 - LBD)): blocked
3 | B3 | 161.1 | 106.4 | ADCC potency on PC3-KILR cells (in words) (PC3-KILR cells): highly potent; fold improvement in ADCC as compared to AB-010018 (PC3-KILR cells; PC3-KILR cells): 10 fold; EC50 (A549 cells): ~6 pM; ADCC activity on A549 cells (in words) (A549 cells; comparisons are to AB-008873 or parent): improved ADCC activity
4 | B4 | 154.2 | 93.9 | –
5 | B5 | 166.6 | 115.4 | –
6 | B6 | 129.9 | 108.0 | –
7 | B7 | 178.2 | – | –
8 | B8 | 174.8 | 100.0 | –
9 | B9 | 162.9 | – | –
10 | B10 | 177.7 | – | –
11 | B11 | 152.1 | 104.6 | EC50 (A549 cells): ~8 pM
12 | B12 | 166.4 | – | –
13 | B13 | 171.2 | 97.2 | –
14 | B14 | 166.8 | – | –
15 | B15 | 154.8 | 108.9 | –
16 | B16 | 167.7 | – | –
17 | B17 | 132.3 | – | –
